In IntAct's records for PubMed 16461343:

B1: Tyrosine-protein phosphatase non-receptor type 22 (Homo sapiens), Q9Y2R2 (parent)
chain: MDQREILQKFLDEAQSKKITKEEFANEFLKLKRQSTKYKADKTYPTTVAEKPKNIKKNRYKDILPYDYSRVELSLITSDEDSSYINANFIKGVYGPKAYIATQGPLSTTLLDFWRMIWEYSVLIIVMACMEYEMGKKKCERYWAEPGEMQLEFGPFSVSCEAEKRKSDYIIRTLKVKFNSETRTIYQFHYKNWPDHDVPSSIDPILELIWDVRCYQEDDSVPICIHCSAGCGRTGVICAIDYTWMLLKDGIIPENFSVFSLIREMRTQRPSLVQTQEQYELVYNAVLELFKRQMDVIRDKHSGTESQAKHCIPEKNHTLQADSYSPNLPKSTTKAAKMMNQQRTKMEIKESSSFDFRTSEISAKEELVLHPAKSSTSFDFLELNYSFDKNADTTMKWQTKAFPIVGEPLQKHQSLDLGSLLFEGCSNSKPVNAAGRYFNSKVPITRTKSTPFELIQQRETKEVDSKENFSYLESQPHDSCFVEMQAQKVMHVSSAELNYSLPYDSKHQIRNASNVKHHDSSALGVYSYIPLVENPYFSSWPPSGTSSKMSLDLPEKQDGTVFPSSLLPTSSTSLFSYYNSHDSLSLNSPTNISSLLNQESAVLATAPRIDDEIPPPLPVRTPESFIVVEEAGEFSPNVPKSLSSAVKVKIGTSLEWGGTSEPKKFDDSVILRPSKSVKLRSPKSELHQDRSSPPPPLPERTLESFFLADEDCMQAQSIETYSTSYPDTMENSTSSKQTLKTPGKSFTRSKSLKILRNMKKSICNSCPPNKPAESVQSNNSSSFLNFGFANRFSKPKGPRNPPPTWNI

Legend:
lck_human LCK, P06239 = variants of: B1; conditions: with lck_human LCK
[1] = variants of: B1; conditions: with zap70_human ZAP70, P43403
cd3z_human CD247, P20963 = variants of: B1; conditions: with cd3z_human CD247, P20963
cd3z_human CD247, P20963, sequence (P20963 whole entry): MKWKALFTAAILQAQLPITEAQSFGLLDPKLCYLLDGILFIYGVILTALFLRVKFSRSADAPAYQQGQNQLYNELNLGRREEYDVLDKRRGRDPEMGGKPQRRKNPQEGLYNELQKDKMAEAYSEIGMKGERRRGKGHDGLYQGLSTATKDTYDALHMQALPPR

lck_human LCK, P06239, sequence (P06239 whole entry, looked up): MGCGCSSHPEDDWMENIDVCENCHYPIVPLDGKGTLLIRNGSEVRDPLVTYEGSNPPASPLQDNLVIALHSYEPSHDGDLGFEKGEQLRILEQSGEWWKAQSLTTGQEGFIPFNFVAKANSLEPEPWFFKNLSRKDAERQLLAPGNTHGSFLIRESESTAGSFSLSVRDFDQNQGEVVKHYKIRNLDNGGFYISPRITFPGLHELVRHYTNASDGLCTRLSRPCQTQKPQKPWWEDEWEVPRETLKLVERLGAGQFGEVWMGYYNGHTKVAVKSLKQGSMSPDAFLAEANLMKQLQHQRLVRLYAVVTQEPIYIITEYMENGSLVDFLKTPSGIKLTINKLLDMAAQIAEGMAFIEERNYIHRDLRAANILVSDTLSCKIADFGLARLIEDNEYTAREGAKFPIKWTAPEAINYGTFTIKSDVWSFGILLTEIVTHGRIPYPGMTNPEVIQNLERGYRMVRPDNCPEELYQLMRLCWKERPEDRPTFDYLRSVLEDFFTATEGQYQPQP
zap70_human ZAP70, P43403, sequence (P43403 whole entry): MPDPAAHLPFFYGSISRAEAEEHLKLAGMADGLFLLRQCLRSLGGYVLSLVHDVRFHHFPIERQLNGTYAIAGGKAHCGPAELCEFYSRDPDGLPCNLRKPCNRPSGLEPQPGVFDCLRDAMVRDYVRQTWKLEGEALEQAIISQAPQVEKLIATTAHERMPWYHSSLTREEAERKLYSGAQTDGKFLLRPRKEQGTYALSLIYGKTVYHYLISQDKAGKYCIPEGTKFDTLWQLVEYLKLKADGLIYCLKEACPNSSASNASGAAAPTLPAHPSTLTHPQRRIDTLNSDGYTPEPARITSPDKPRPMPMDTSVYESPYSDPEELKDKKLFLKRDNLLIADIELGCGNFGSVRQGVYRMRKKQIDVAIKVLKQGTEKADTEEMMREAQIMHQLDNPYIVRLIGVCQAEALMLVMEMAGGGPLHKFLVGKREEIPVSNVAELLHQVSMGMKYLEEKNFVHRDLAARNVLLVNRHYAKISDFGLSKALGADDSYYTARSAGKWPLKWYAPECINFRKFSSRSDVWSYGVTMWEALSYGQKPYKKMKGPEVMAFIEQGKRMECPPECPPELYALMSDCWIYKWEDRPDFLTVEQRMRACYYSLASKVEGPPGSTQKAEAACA

effect of a mutation on the interaction (lck_human LCK, P06239)	effect of a mutation on the interaction [1]	effect of a mutation on the interaction (cd3z_human CD247, P20963)	Variant
increasing interaction	increasing interaction	increasing interaction	C227S
increasing interaction	increasing interaction	increasing interaction	D195A
